Results on 4 substances are retold here after patent US20160159928A1.

Holding throughout (assay): cell-based or functional assay
The target in experiment [1] is Kv1.3 (human) (UniProt P22001).
For experiment [2], the target named is CXCR1 (UniProt P25024).
Experiment [3] addresses CXCR1 (UniProt P25024). The source holds these as a separate data set.

Several values for one entry are separate records, joined by “and”; a condition that tells them apart may be missing. Equal values may be shown once. Read-outs that look alike come from different tables or passages of the source.

Sequence of interleukin 8 (soluble) (P10145 28-99 limits assumed): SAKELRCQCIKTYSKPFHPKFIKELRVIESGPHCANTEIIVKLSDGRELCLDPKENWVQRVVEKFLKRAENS
Sequence of Kv1.3 (human) (P22001 whole entry): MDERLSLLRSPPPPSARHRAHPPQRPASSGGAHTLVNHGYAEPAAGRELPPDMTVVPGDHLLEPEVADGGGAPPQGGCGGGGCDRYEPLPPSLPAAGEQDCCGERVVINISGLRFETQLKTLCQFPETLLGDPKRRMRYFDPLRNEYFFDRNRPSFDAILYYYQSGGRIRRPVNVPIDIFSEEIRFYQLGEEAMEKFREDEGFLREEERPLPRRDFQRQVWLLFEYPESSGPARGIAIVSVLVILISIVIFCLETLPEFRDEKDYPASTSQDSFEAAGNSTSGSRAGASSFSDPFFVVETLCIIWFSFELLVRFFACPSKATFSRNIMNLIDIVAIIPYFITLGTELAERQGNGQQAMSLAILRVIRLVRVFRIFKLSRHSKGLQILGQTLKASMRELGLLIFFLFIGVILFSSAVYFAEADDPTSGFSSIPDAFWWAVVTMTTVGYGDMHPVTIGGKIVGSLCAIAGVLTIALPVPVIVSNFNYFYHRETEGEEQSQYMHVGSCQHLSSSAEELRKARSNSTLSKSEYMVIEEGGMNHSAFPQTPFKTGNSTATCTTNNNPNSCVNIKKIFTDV
Sequence of CXCR1 (P25024 whole entry): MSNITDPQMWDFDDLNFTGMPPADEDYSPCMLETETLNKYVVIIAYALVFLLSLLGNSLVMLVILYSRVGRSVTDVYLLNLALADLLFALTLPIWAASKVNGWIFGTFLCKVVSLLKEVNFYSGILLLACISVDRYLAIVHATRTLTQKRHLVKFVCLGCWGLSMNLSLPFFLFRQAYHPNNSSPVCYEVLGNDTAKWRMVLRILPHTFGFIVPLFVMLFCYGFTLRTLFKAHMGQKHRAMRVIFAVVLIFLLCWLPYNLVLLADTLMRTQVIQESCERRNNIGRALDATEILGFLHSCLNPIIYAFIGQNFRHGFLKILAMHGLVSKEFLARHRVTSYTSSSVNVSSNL

In experiment [1], BLV1H12 (antibody) came in with an IL-2 ELISA (A450); Donor 1; 150 nM IgG of 0.445 A450, an IL-2 ELISA (A450); Donor 2; 150 nM IgG of 0.355 A450, a TNF-α ELISA (A450); Donor 1; 150 nM IgG of 0.11 A450 and a TNF-α ELISA (A450); Donor 2; 150 nM IgG of 0.058 A450.

In experiment [2], “IgG VH4-4 CDR3 BsaI (lacking the IL-8 insert) (antibody)” came in with an average RLU at 0.001 nM IgG of 7500 RLU, an average RLU at 0.004 nM IgG of 7390 RLU, an average RLU at 0.013 nM IgG of 7050 RLU and an average RLU at 0.040 nM IgG of 6970 RLU. Further, in experiment [2], the average RLU at 0.120 nM IgG came to 7330 RLU, the average RLU at 0.359 nM IgG amounted to 6690 RLU, the average RLU at 1.076 nM IgG is 7180 RLU and the average RLU at 3.228 nM IgG turned out to be 7030 RLU. In addition, in experiment [2], the average RLU at 9.685 nM IgG turned out to be 7170 RLU, the average RLU at 29.056 nM IgG worked out at 7100 RLU, the average RLU at 87.167 nM IgG turned out to be 7140 RLU and the average RLU at 261.500 nM IgG turned out to be 7540 RLU.

Negative Control IgG (antibody): in experiment [1], the IL-2 ELISA (A450), Donor 1, [IgG] 0.01 nM was 2 A450 and 2.15 A450; the IL-2 ELISA (A450), Donor 1, [IgG] 0.75 nM was 2.11 A450 and 2.04 A450; the IL-2 ELISA (A450), Donor 1, [IgG] 68 nM is 1.48 A450 and 1.55 A450; the IL-2 ELISA (A450), Donor 2, [IgG] 0.01 nM is 1.61 A450 and 1.48 A450. In experiment [1], the IL-2 ELISA (A450), Donor 2, [IgG] 0.75 nM is 1.56 A450 and 1.52 A450; the IL-2 ELISA (A450), Donor 2, [IgG] 68 nM is 1.5 A450 and 1.37 A450; the TNF-α ELISA (A450), Donor 1, [IgG] 0.01 nM was 1.62 A450 and 1.66 A450; the TNF-α ELISA (A450), Donor 1, [IgG] 0.75 nM was 1.69 A450 and 1.65 A450. In experiment [1], the TNF-α ELISA (A450), Donor 1, [IgG] 68 nM is 1.02 A450 and 1.13 A450; the TNF-α ELISA (A450), Donor 2, [IgG] 0.01 nM was 2.07 A450 and 1.77 A450; the TNF-α ELISA (A450), Donor 2, [IgG] 0.75 nM was 2.04 A450 and 1.85 A450; the TNF-α ELISA (A450), Donor 2, [IgG] 68 nM was 1.88 A450 and 1.54 A450.

As for “interleukin 8 (soluble) (from UniProt P10145 28-99) (ligand)”, in experiment [2], the average RLU at 0.01 nM was 440 RLU, the average RLU at 0.08 nM stood at 504 RLU, the average RLU at 0.23 nM is 940 RLU and the average RLU at 0.69 nM was found to be 1940 RLU. In experiment [2], this substance displayed an average RLU at 2.06 nM of 4110 RLU, an average RLU at 6.17 nM of 5870 RLU, an average RLU at 18.52 nM of 7300 RLU and an average RLU at 31.5 nM of 55500 RLU. Moreover, in experiment [2], the average RLU at 55.56 nM turned out to be 7360 RLU, the average RLU at 166.67 nM turned out to be 6770 RLU, the average RLU at 500.00 nM was 5720 RLU and the luminescence at 0.1 nM IL-8 domains stood at 4200. Further, in experiment [2], the luminescence at 0.4 nM IL-8 domains was found to be 6530, the luminescence at 0.5 nM IL-8 domains is 9790, the luminescence at 1.6 nM IL-8 domains turned out to be 12200 and the luminescence at 2.2 nM IL-8 domains was found to be 25700. In experiment [2], the luminescence at 6.25 nM IL-8 domains is 28600, the luminescence at 9.9 nM IL-8 domains turned out to be 50300, the luminescence at 25 nM IL-8 domains stood at 50500 and the luminescence at 44 nM IL-8 domains was 54100. In experiment [2], this substance yielded a luminescence at 100 nM IL-8 domains of 70200 and a luminescence at 200 nM IL-8 domains of 50400. In addition, in experiment [3], the luminescence at 0.4 nM IL-8 domains came to 4930, the luminescence at 1.6 nM IL-8 domains was determined as 8730, the luminescence at 6.25 nM IL-8 domains came to 22300 and the luminescence at 25 nM IL-8 domains came out at 42200. In addition, in experiment [3], the luminescence at 100 nM IL-8 domains turned out to be 54000.
